What was measured:
[1] = biological target: T1, his-tagged human PVRIG (h-PVRIG-his) recombinant protein (human, UniProt Q6DKI7 41-171, limits assumed); test: BLI (Fortebio), antibody on Protein A sensor, 1:1 fit
T1 construct: bought from Acrobiosystems; also called Human PVRIG-his; human PVRIG recombinant protein; not shown: his tag
T1 sequence (looked up): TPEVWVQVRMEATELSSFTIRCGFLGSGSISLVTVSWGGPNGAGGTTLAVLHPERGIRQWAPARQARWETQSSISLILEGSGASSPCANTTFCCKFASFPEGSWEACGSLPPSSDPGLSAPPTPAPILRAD
Protocol: A Protein A biosensor (Fortebio, #18-5010) was immersed in 200 μL of KB buffer (PBS, pH 7.4, 0.02% tween-20, 0.1% BSA) for 60 s for the wetting treatment. Then, the anti-PVRIG antibody was diluted to 10 μg/mL with the KB buffer, and the sensor was immersed in 200 μL of the solution until the reading was 1.2 nm. The sensor was immersed in the KB buffer for 100 s to elute excess antibody. The his-tagged human PVRIG was diluted in a 2-fold gradient to 64 nM-4 nM with the KB buffer. The sensor was immersed in the solution for 300 s for binding. The sensor was immersed in the KB buffer for 600 s for dissociation. The data were fitted in a dynamic 1:1 binding mode.

[2] = biological target: T2, human PVRIG expressed on cells (human, UniProt Q6DKI7 41-326); test: cell-based or functional assay
T2 sequence (looked up): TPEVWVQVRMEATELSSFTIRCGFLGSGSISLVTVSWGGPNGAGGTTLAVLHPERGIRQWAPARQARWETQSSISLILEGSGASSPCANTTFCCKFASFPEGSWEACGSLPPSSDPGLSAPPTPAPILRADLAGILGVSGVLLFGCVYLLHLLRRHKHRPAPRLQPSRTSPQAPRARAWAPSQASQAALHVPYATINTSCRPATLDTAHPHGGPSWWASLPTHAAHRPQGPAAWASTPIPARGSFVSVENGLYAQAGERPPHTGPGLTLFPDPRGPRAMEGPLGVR

[3] = biological target: T2, human PVRIG expressed on cells; test: FACS, cells overexpressing target
Protocol: (§1) The expression plasmid carrying human or cynomolgus monkey PVRIG gene sequence was transfected into HEK293 cells, and the over-expressing stable transfection monoclonal cell strain was obtained by antibiotic screening and infinite dilution. Overexpressing cells were seeded into a 96-well plate at 2×10⁵ cells/per well. The cells were centrifuged at 300 g for 5 min, the supernatant was then removed, 100 μL of the test antibody was added, and the mixture was incubated at 4° C. for 1 h. The mixture was centrifuged, the supernatant was removed, the plate was washed 3 times with 200 μL of wash buffer (PBS+2% FBS), and then 100 μL of an anti-human IgG secondary antibody (Invitrogen, A-11013) labeled with Alexa Fluor 488 diluted at 1:500 was added. The mixture was incubated at 4° C. for 1 h. The plate was centrifuged, and the supernatant was removed. The plate was washed 3 times with 200 μL of wash buffer (PBS+2% FBS). The cells were resuspended in 100 μL of PBS and tested on a flow cytometer (BD FACS Calibur or BD FACS Canto_II).
(§2) Binding of the humanized anti-PVRIG/TIGIT bispecific antibodies to human and cynomolgus monkey PVRIG and their blocking of the ligand of human PVRIG were detected according to the methods of Examples 4, 5 and 6.

[4] = biological target: T3, his-tagged cynomolgus monkey PVRIG (cyno-PVRIG-his) recombinant protein (cynomolgus monkey); test: ELISA, coated antigen
T3 construct: expressed in HEK293, purified by Ni-NTA; also called Monkey PVRIG-his; cynomolgus monkey PVRIG recombinant protein
T3 chain: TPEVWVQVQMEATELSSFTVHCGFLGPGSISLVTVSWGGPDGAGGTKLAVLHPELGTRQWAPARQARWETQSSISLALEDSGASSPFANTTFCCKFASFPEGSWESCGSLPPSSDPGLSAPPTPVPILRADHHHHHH
Protocol: (§3) A human, cynomolgus monkey, or mouse PVRIG protein (at a concentration of 1 μg/mL) was coated on a 96-well microplate at 100 μL per well, and incubated overnight at 4° C. The plate was washed three times with wash buffer at 250 μL per well. For each wash, the plate was shaken for 10 s to ensure adequate cleaning. A blocking solution (PBS+0.05% Tween20+1% BSA) was added at 300 μL/well, and the plate was incubated at room temperature for 1 h. The plate was washed three times with wash buffer at 250 μL per well. For each wash, the plate was shaken for 10 s to ensure adequate cleaning. Dilutions of the test anti-PVRIG antibodies were added at 100 μL/well. The plate was incubated at 37° C. for 1 h. The plate was washed three times with wash buffer at 250 μL per well. The […] anti-human IgG secondary antibody (Sigma, A8667) was added at 100 μL per well. The plate was incubated at 37° C. for 1 h. The plate was washed three times with wash buffer at 250 μL per well. TMB was added at 100 μL/well, and the plate was incubated in the dark for 15 min. 0.16 M sulfuric acid was added at 50 μL/well. The OD values at 450 nm were read by using a Thermo MultiSkanFc microplate reader, and the EC₅₀ values of the binding of the anti-PVRIG antibodies to PVRIG were calculated.
as §2

[5] = biological target: T1, his-tagged human PVRIG (h-PVRIG-his) …; test: ELISA, coated antigen
Protocol: as §3, §2

[6] = biological target: T4, cynomolgus monkey TIGIT expressed on cells (cynomolgus monkey, UniProt A0A7N9I9V4 89-312); test: FACS, cells overexpressing target
T4 construct: whole, on cells; also called cells overexpressing cynomolgus monkey TIGIT
Protocol: as §1
(§4) Similarly to Examples 4, 5 and 6, the binding of humanized anti-PVRIG/TIGIT bispecific antibodies to human and cynomolgus monkey TIGIT and blocking of binding of human TIGIT to ligand were detected, where PVRIG protein was replaced with TIGIT and PVRL2 was replaced with PVR.

[7] = biological target: T5, human TIGIT expressed on cells (human, UniProt Q495A1 22-244); test: FACS, cells overexpressing target
T5 construct: whole, on cells; also called cells overexpressing human TIGIT
T5 sequence (looked up): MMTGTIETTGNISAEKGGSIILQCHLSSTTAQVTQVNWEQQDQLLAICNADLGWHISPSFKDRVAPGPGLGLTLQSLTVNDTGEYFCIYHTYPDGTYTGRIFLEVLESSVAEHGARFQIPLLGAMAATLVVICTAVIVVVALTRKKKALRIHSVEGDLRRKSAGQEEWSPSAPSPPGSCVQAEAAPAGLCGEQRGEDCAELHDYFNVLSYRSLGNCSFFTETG
Protocol: as §1, §4

T4 sequence (A0A7N9I9V4 entry or part of it): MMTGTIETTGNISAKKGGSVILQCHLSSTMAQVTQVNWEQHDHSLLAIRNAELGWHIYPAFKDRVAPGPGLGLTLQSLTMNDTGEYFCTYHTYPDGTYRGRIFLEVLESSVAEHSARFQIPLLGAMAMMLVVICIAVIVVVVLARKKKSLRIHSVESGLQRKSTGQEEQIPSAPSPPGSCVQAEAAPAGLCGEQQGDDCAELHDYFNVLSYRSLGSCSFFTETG

| Binder | Kd [1] [nM] | koff [1] [s⁻¹] | kon [1] [M⁻¹ s⁻¹] | MLR IFNγ (pg/mL), 4 nM antibody [2] [pg/mL] | MLR IFNγ (pg/mL), 20 nM antibody [2] [pg/mL] | MLR IFNγ (pg/mL), 100 nM antibody [2] [pg/mL] | EC50 [3] [nM] | binding result [4] | EC50 [5] [nM] | binding result [6] | binding result [7] | EC50 [4] [nM] | EC50 [6] [nM] | EC50 [7] [nM] |
| --- | --- | --- | --- | --- | --- | --- | --- | --- | --- | --- | --- | --- | --- | --- |
| anti-PVRIG antibody 151 (antibody, human IgG4 S228P, F234A L235A, V domains shown, no light chain) VH: HVQLVESGGGSVQAGGSLRLSCVASASGFTYRPYCMAWFRQAPGKEREAVAGIDIFGGTTYADSVKGRFTASRDNAGFSLFLQMNDLKPEDTAMYYCAAGDSPDGRCPPLGQGLNYWGQGTQVTVSS | 0.2 | 5.22e-05 | 261000 | 1500 | 2220 | 1800 | – | – | – | – | – | – | – | – |
| anti-PVRIG antibody 39 (antibody, human IgG4 S228P, F234A L235A, V domains shown, no light chain) VH: QVQLVESGGGSVQAGGSLRLSCAASRYTSRTDCMGWFRQAPGKEREGVAHIDSDGIPRYVESVKGRFTISQDHAKNTLYLQMNSLKPEDSATYYCVVGFKFGDYCAPNDWGQGTQVTVSS | 0.696 | 0.000169 | 242000 | – | – | – | – | – | – | – | – | – | – | – |
| anti-PVRIG antibody 30 (antibody, human IgG4 S228P, F234A L235A, V domains shown, no light chain) VH: HVQLVESGGGSVQAGGSLRLSCEASGYSYSGDCMGWFRRAPGKERDEGVATIDNAGRIKYADSVKGRFTISHGNGKYILYLQMNSLKPEDTDMYYCAAGWTFGGNCSPADWGQGTQVTVSS | 0.723 | 0.000205 | 284000 | 1680 | 1910 | 1580 | – | – | – | – | – | – | – | – |
| anti-PVRIG antibody 38 (antibody, human IgG4 S228P, F234A L235A, V domains shown, no light chain) VH: QVQLVESGGGSVQAGGSLRLSCAASPSTYGPSDMAWFRQAPGKQREGVATISAAGRLTYYTDSVRGRFTISRDNAKNTMYLQMNSLKPEDTAMYYCAADFAGGSSLFADYKYWGQGTQVTVSS | 2.17 | 0.000287 | 132000 | 1390 | 2020 | 2130 | – | – | – | – | – | – | – | – |

Other lines, results leading:

| Kd [1] [nM] | koff [1] [s⁻¹] | kon [1] [M⁻¹ s⁻¹] | MLR IFNγ (pg/mL), 4 nM antibody [2] [pg/mL] | MLR IFNγ (pg/mL), 20 nM antibody [2] [pg/mL] | MLR IFNγ (pg/mL), 100 nM antibody [2] [pg/mL] | EC50 [3] [nM] | binding result [4] | EC50 [5] [nM] | binding result [6] | binding result [7] | EC50 [4] [nM] | EC50 [6] [nM] | EC50 [7] [nM] | Binder |
| --- | --- | --- | --- | --- | --- | --- | --- | --- | --- | --- | --- | --- | --- | --- |
| 0.219 | – | – | 912 | 1420 | 2350 | 0.789 | no binding | 1.41 | no binding | no binding | – | – | – | positive antibody Tab5 (antibody, human IgG4 S228P, kappa, F234A L235A, V domains shown, Variable regions of CPA.7.021 (WO2016134333A1) on human IgG4 (S228P/F234A/L235A/K447A) and human kappa constant regions) VH: EVQLVESGGGVVKPGGSLRLSCAASGFTFGTSSMNWVRQAPGKGLEWVAVISFDGTEIHYADSVKGRFTISRDNSKSTVFLQMNSLRPDDTALYYCAKGSGNIYFYSGMDVWGQGTTVTVSS VL: DIQMTQSPSTLSASVGDRVTITCRAGQSISGWLAWFQQKPGKAPNLLIYETSTLESGVPSRFSGSGSGTEYTLTISSLQPDDFATYYCQQYYSYPLTFGQGTKVEIKR |
| – | – | – | – | – | – | 0.075 | – | 2.47 | – | – | 0.144 | 0.009 | 0.01 | humanized anti-PVRIG/TIGIT bispecific antibody 1708-20H5 (bispecific antibody, human IgG4 S228P, kappa) heavy: not shown light: DIQMTQSPSSLSASVGDRVTITCRASENIYSYLAWYQQKPGKSPKLLIYNARTLAEGVPSRFSGSGSGTDFTLTISSLQPEDFATYYCQYHSGSPLPFGGGTKVEIKRTVAAPSVFIFPPSDEQLKSGTASVVCLLNNFYPREAKVQWKVDNALQSGNSQESVTEQDSKDSTYSLSSTLTLSKADYEKHKVYACEVTHQGLSSPVTKSFNRGEC |
| – | – | – | – | – | – | 0.056 | – | 0.32 | – | – | 0.184 | 0.009 | 0.01 | humanized anti-PVRIG/TIGIT bispecific antibody 1708-30H2 (bispecific antibody, human IgG4 S228P, kappa) heavy: not shown light: DIQMTQSPSSLSASVGDRVTITCRASENIYSYLAWYQQKPGKSPKLLIYNARTLAEGVPSRFSGSGSGTDFTLTISSLQPEDFATYYCQYHSGSPLPFGGGTKVEIKRTVAAPSVFIFPPSDEQLKSGTASVVCLLNNFYPREAKVQWKVDNALQSGNSQESVTEQDSKDSTYSLSSTLTLSKADYEKHKVYACEVTHQGLSSPVTKSFNRGEC |

From US20240376207A1 (JIANGSU HENGRUI PHARMACEUTICALS, published 2024)
